This is an account of results in patent US20240288416A1 (RIJKSUNIVERSITEIT GRONINGEN, published 2024).

The assay addresses T1, artificial PA28-nanopore.
T1 construct: also called PA-nanopore; PA nanopore
Nature of the assay: single-channel electrical recording in a planar lipid bilayer, 1 M NaCl.

B1: 20S proteasome from Thermoplasma acidophilum (enzyme)
chain 1: MQQGQMAYDRAITVFSPDGRLFQVEYAREAVKKGSTALGMKFANGVLLISDKKVRSRLIEQNSIEKIQLIDDYVAAVTSGLVADARVLVDFARISAQQEKVTYGSLVNIENLVKRVADQMQQYTQYGGVRPYGVSLIFAGIDQIGPRLFDCDPAGTINEYKATAIGSGKDAVVSFLEREYKENLPEKEAVTLGIKALKSSLEEGEELKAPEIASITVGNKYRIYDQEEVKKFL
chain 2: TTTVGITLKDAVIMATERRVTMENFIMHKNGKKLFQIDTYTGMTIAGLVGDAQVLVRYMKAELELYRLQRRVNMPIEAVATLLSNMLNQVKYMPYMVQLLVGGIDTAPHVFSIDAAGGSVEDIYASTGSGSPFVYGVLESQYSEKMTVDEGVDLVIRAISAAKQRDSASGGMIDVAVITRKDGYVQLPTDQIESRIRKLGLIL
notes: also called the proteasome; T. acidophilum proteasome
Turning to B1, the binding result is listed as “no binding”.
